Assay results taken from US20030064071A1 (NEW YORK UNIVERSITY, published 2003).

Target: T1, M-tropic HIV-1MN envelope glycoprotein gp120 (HIV-1 (strain MN), UniProt P05877 32-513)
T1 construct: domain: gp120; also called HIV-1 gp120; HIV-1MN gp120
Experiment: fluorescent bead adhesion assay, flow cytometry

B1: DC-SIGN (receptor)
chain: MSDSKEPRLQQLGLLEEEQLRGLGFRQTRGYKSLAGCLGHGPLVLQLLSFTLLAGLLVQVSKVPSSISQEQSRQDAIYQNLTQLKAAVGELSEKSKLQEIYQELTQLKAAVGELPEKSKLQEIYQELTRLKAAVGELPEKSKLQEIYQELTWLKAAVGELPEKSKMQEIYQELTRLKAAVGELPEKSKQQEIYQELTRLKAAVGELPEKSKQQEIYQELTRLKAAVGELPEKSKQQEIYQELTQLKAAVERLCHPCPWEWTFFQGNCYFMSNSQRNWHDSITACKEVGAQLVVIKSAEEQNFLQLQSSRSNRFTWMGLSDLNQEGTWQWVDGSPLLPSFKQYWNRGEPNNVGEEDCAEFSGNGWNDDKCNLAKFWICKKSAASCSRDEEQFLSPAPATPNPPPA
notes: also called THP-DC-SIGN (THP-1 transfectant)
B1: binds.
